Key:
HLA-A*02:19 = experiment: IEDB peptide-MHC binding, purified MHC/competitive/fluorescence; filed as Kd, often an IC50 or EC50 that approximates it; ≥ and ≤ were set here for values at or beyond the usual limits of such assays; settings: source organism: Giardia lamblia ATCC 50803
HLA-A*02:03 = experiment: as above; settings: source organism: Giardia lamblia ATCC 50803
HLA-A*02:01 [1] = experiment: as above; settings: source organism: Giardia lamblia ATCC 50803
HLA-A*25:01 [2] = experiment: as above; settings: source organism: Giardia lamblia ATCC 50803
HLA-A*26:01 [3] = experiment: as above; settings: source organism: Giardia lamblia ATCC 50803
HLA-A*02:16 [4] = experiment: as above; settings: source organism: Giardia lamblia ATCC 50803
HLA-B*46:01 [5] = experiment: as above; settings: source organism: Giardia lamblia ATCC 50803
HLA-B*39:01 = experiment: as above
HLA-A*02:12 [6] = experiment: as above; settings: source organism: Giardia lamblia ATCC 50803
HLA-A*69:01 [7] = experiment: as above; settings: source organism: Giardia lamblia ATCC 50803
HLA-A*03:01 [8] = experiment: as above; settings: source organism: Giardia lamblia ATCC 50803
HLA-A*29:02 [9] = experiment: as above; settings: source organism: Giardia lamblia ATCC 50803
HLA-B*27:03 [10] = experiment: as above; settings: source organism: Giardia lamblia ATCC 50803
HLA-A*68:02 [11] = experiment: as above; settings: source organism: Giardia lamblia ATCC 50803
HLA-B*58:01 [12] = experiment: as above; settings: source organism: Escherichia coli F11
HLA-A*02:06 = experiment: IEDB peptide-MHC binding, purified MHC/direct/fluorescence; filed as Kd, often an IC50 or EC50 that approximates it; ≥ and ≤ were set here for values at or beyond the usual limits of such assays; settings: source organism: Vibrio parahaemolyticus AQ3810
HLA-B*15:01 = experiment: as above; settings: source organism: Vibrio parahaemolyticus AQ3810
HLA-B*57:01 = experiment: as above; settings: source organism: Vibrio parahaemolyticus AQ3810
HLA-A*02:01 [13] = experiment: as above; settings: source organism: Vibrio parahaemolyticus AQ3810
HLA-A*26:01 [14] = experiment: as above; settings: source organism: Vibrio parahaemolyticus AQ3810
HLA-A*02:16 [15] = experiment: as above; settings: source organism: Vibrio parahaemolyticus AQ3810
HLA-B*46:01 [16] = experiment: as above; settings: source organism: Vibrio parahaemolyticus AQ3810
HLA-B*18:01 [17] = experiment: as above; settings: source organism: Vibrio parahaemolyticus AQ3810
HLA-A*02:12 [18] = experiment: as above; settings: source organism: Vibrio parahaemolyticus AQ3810
HLA-B*51:01 [19] = experiment: as above; settings: source organism: Vibrio parahaemolyticus AQ3810
HLA-B*15:17 = experiment: as above; settings: source organism: Vibrio parahaemolyticus AQ3810
HLA-A*69:01 [20] = experiment: as above; settings: source organism: Vibrio parahaemolyticus AQ3810
HLA-A*03:01 [21] = experiment: as above; settings: source organism: Vibrio parahaemolyticus AQ3810
HLA-A*29:02 [22] = experiment: as above; settings: source organism: Vibrio parahaemolyticus AQ3810
HLA-B*27:03 [23] = experiment: as above; settings: source organism: Vibrio parahaemolyticus AQ3810
HLA-B*44:02 = experiment: IEDB peptide-MHC binding, purified MHC/competitive/fluorescence; ≥ and ≤ were set here for values at or beyond the usual limits of such assays; settings: source organism: Homo sapiens
HLA-B*40:02 = experiment: as above
HLA-A*02:05 = experiment: IEDB peptide-MHC binding, purified MHC/competitive/radioactivity; filed as Kd, often an IC50 or EC50 that approximates it; ≥ and ≤ were set here for values at or beyond the usual limits of such assays; settings: source organism: Homo sapiens
HLA-B*27:05 = experiment: IEDB peptide-MHC binding, purified MHC/competitive/fluorescence; filed as Kd, often an IC50 or EC50 that approximates it; ≥ and ≤ were set here for values at or beyond the usual limits of such assays; settings: source organism: Shigella boydii CDC 3083-94
HLA-B*40:01 = experiment: as above; settings: source organism: Bacillus cereus G9241
HLA-B*08:01 = experiment: IEDB peptide-MHC binding, purified MHC/competitive/fluorescence; ≥ and ≤ were set here for values at or beyond the usual limits of such assays; settings: source organism: Monodelphis domestica
HLA-A*24:02 = experiment: as above; settings: source organism: Monodelphis domestica
HLA-A*11:01 = experiment: as above; settings: source organism: Monodelphis domestica
HLA-B*44:03 = experiment: as above; settings: source organism: Monodelphis domestica
HLA-B*14:02 = experiment: as above; settings: source organism: Monodelphis domestica
HLA-A*02:01 [24] = experiment: as above; settings: source organism: Monodelphis domestica
HLA-A*25:01 [25] = experiment: as above; settings: source organism: Monodelphis domestica
HLA-A*01:01 = experiment: as above; settings: source organism: Monodelphis domestica
HLA-B*37:01 = experiment: as above; settings: source organism: Monodelphis domestica
HLA-B*53:01 = experiment: as above; settings: source organism: Monodelphis domestica
HLA-B*18:01 [26] = experiment: as above; settings: source organism: Monodelphis domestica
HLA-B*07:02 = experiment: as above; settings: source organism: Monodelphis domestica
HLA-B*51:01 [27] = experiment: as above; settings: source organism: Monodelphis domestica
HLA-A*03:01 [28] = experiment: as above; settings: source organism: Monodelphis domestica
HLA-B*58:01 [29] = experiment: as above; settings: source organism: Monodelphis domestica
HLA-A*31:01 = experiment: as above; settings: source organism: Monodelphis domestica
HLA-B*35:01 = experiment: as above; settings: source organism: Monodelphis domestica
HLA-A*29:02 [30] = experiment: as above; settings: source organism: Monodelphis domestica
HLA-A*68:02 [31] = experiment: as above; settings: source organism: Monodelphis domestica

KVSWRWMVY showed a Kd (HLA-A*02:19) of at least 20 µM, a Kd (HLA-A*02:03) of at least 20 µM and a Kd (HLA-A*02:01 [1]) of at least 20 µM. It also gave a Kd (HLA-A*25:01 [2]) of at least 20 µM, a Kd (HLA-A*26:01 [3]) of at least 20 µM and a Kd (HLA-A*02:16 [4]) of at least 20 µM. For the same sequence, the Kd (HLA-B*46:01 [5]) was at least 20 µM, the Kd (HLA-B*39:01; source organism: Giardia lamblia ATCC 50803) was at least 20 µM and the Kd (HLA-A*02:12 [6]) was at least 20 µM. It also gave a Kd (HLA-A*69:01 [7]) of at least 20 µM, a Kd (HLA-A*03:01 [8]) of 0.0043 µM and a Kd (HLA-A*29:02 [9]) of 0.148 µM. For the same sequence, the Kd (HLA-B*27:03 [10]) was at least 20 µM and the Kd (HLA-A*68:02 [11]) was at least 20 µM.
With QHFGLIPQW the Kd (HLA-B*58:01 [12]) was 0.143 µM.
For MQGKDFNHL, the Kd (HLA-A*02:06) was 0.009 µM, the Kd (HLA-B*15:01) was at least 20 µM and the Kd (HLA-B*57:01) was at least 20 µM. For the same sequence, the Kd (HLA-A*02:01 [13]) was at least 20 µM, the Kd (HLA-A*26:01 [14]) was at least 20 µM and the Kd (HLA-A*02:16 [15]) was at least 20 µM. It also gave a Kd (HLA-B*46:01 [16]) of at least 20 µM, a Kd (HLA-B*18:01 [17]) of at least 20 µM and a Kd (HLA-A*02:12 [18]) of 1.21 µM. The Kd (HLA-B*51:01 [19]) was at least 20 µM, the Kd (HLA-B*15:17) was at least 20 µM and the Kd (HLA-A*69:01 [20]) was at least 20 µM. The Kd (HLA-A*03:01 [21]) was at least 20 µM, the Kd (HLA-A*29:02 [22]) was at least 20 µM and the Kd (HLA-B*27:03 [23]) was at least 20 µM.
In the case of SDFQVHFL, the IC50 (HLA-B*44:02) is reported as at least 20 µM and the IC50 (HLA-B*40:02; source organism: Homo sapiens) is reported as 0.0124 µM.
With RLFPGLAIKI the Kd (HLA-A*02:05) was 0.09 µM.
For WRLVYASAV, the Kd (HLA-B*27:05) was 0.0753 µM and the Kd (HLA-B*39:01; source organism: Shigella boydii CDC 3083-94) was 0.0118 µM.
Sequence GEIVLCHVL has a Kd (HLA-B*40:01) of 0.005 µM.
FLLPILSQIYT showed an IC50 (HLA-B*08:01) of at least 20 µM, an IC50 (HLA-A*24:02) of at least 20 µM and an IC50 (HLA-A*11:01) of at least 20 µM. For the same sequence, the IC50 (HLA-B*44:03) was at least 20 µM, the IC50 (HLA-B*14:02) was at least 20 µM and the IC50 (HLA-A*02:01 [24]) was 0.0053 µM. The IC50 (HLA-A*25:01 [25]) was at least 20 µM, the IC50 (HLA-A*01:01) was at least 20 µM and the IC50 (HLA-B*37:01) was at least 20 µM. The IC50 (HLA-B*53:01) was at least 20 µM, the IC50 (HLA-B*18:01 [26]) was at least 20 µM and the IC50 (HLA-B*07:02) was at least 20 µM. The IC50 (HLA-B*51:01 [27]) was at least 20 µM, the IC50 (HLA-A*03:01 [28]) was at least 20 µM and the IC50 (HLA-B*58:01 [29]) was at least 20 µM. It also gave an IC50 (HLA-B*40:02; source organism: Monodelphis domestica) of at least 20 µM, an IC50 (HLA-A*31:01) of at least 20 µM and an IC50 (HLA-B*35:01) of 0.206 µM. It also gave an IC50 (HLA-A*29:02 [30]) of 0.206 µM and an IC50 (HLA-A*68:02 [31]) of at least 20 µM.

Source: the Immune Epitope Database (IEDB)
